Assays:
[1] = biological target: autophosphorylated G547 IRE1α (residues G547-L977, incubated with Mg/ATP) (human) (UniProt O75460)
[2] = biological target: GST-G547 IRE1α (His-GST-tagged IRE1α residues G547-L977) (UniProt O75460)
[3] = biological target: GST-G547 IRE1α (His-GST-tagged IRE1α residues G547-L977) (UniProt O75460); experiment: native gel or EMSA; native polyacrylamide gel of purified GST-G547 IRE1α and G547 IRE1α; conditions not given

RNase activity (FRET-derepression assay) against concentration of autophosphorylated G547 IRE1α; activity from 50 nM, maximal at 350 nM [1] | RNase activity (FRET derepression assay) of fully dephosphorylated GST-G547 IRE1α at 25 nM, the lowest concentration tested (% of full activity) [2] | stoichiometry N [3] | Substance
114 nM |  |  | autophosphorylated G547 IRE1α (residues G547-L977, incubated with Mg/ATP) (from UniProt O75460 547-977) (domain or fragment)
 | 70 | 2 | GST-G547 IRE1α (His-GST-tagged IRE1α residues G547-L977) (from UniProt O75460 547-977)

Source: article PMC3928614
